B1: GpH7-A5/GpH7-B3 variant I336_02A/GpL16-k0 (antibody, human IgG1, kappa)
heavy 1: not shown
heavy 2: not shown
light: DIVMTQSPLSLPVTPGEPASISCQASESLVHSNRNTYLHWYLQKPGQSPQLLIYKVSNRFSGVPDRFSGSGSGTDFTLKISRVEAEDVGVYYCSQNTHVPPTFGQGTKVEIERTVAAPSVFIFPPSDEQLKSGTASVVCLLNNFYPREAKVQWKVDNALQSGNSQESVTEQDSKDSTYSLSSTLTLSKADYEKHKVYACEVTHQGLSSPVTKSFNRGEC
notes: also called He Ab I336_02A
B2: GpH7-A5/GpH7-B3 variant S324_02A/GpL16-k0 (antibody, human IgG1, kappa)
heavy 1: not shown
heavy 2: not shown
light: B1 light
notes: also called He Ab S324_02A
B3: GpH7-A5/GpH7-B3 variant S337_04F/GpL16-k0 (antibody, human IgG1, kappa)
heavy 1: not shown
heavy 2: not shown
light: B1 light
notes: also called He Ab S337_04F
B4: GpH7-A5/GpH7-B3 variant S324_15Y/GpL16-k0 (antibody, human IgG1, kappa)
heavy 1: not shown
heavy 2: not shown
light: B1 light
notes: also called He Ab S324_15Y
B5: GpH7-A5/GpH7-B3 variant L234_07I/GpL16-k0 (antibody, human IgG1, kappa)
heavy 1: not shown
heavy 2: not shown
light: B1 light
notes: also called He Ab L234_07I
B6: GpH7-A5/GpH7-B17/GpL16-k0 (antibody, human IgG1, kappa)
heavy 1: not shown
heavy 2: not shown
light: B1 light
notes: also called He Ab L234_09D; GpH7-A5/GpH7-B3 variant L234_09D/GpL16-k0
B7: GpH7-A5/GpH7-B3 variant S337_09D/GpL16-k0 (antibody, human IgG1, kappa)
heavy 1: not shown
heavy 2: not shown
light: B1 light
notes: also called He Ab S337_09D
B8: GpH7-A5/GpH7-B3 variant Q295_14T/GpL16-k0 (antibody, human IgG1, kappa)
heavy 1: not shown
heavy 2: not shown
light: B1 light
notes: also called He Ab Q295_14T
B9: GpH7-A5/GpH7-B3 variant S337_18N/GpL16-k0 (antibody, human IgG1, kappa)
heavy 1: not shown
heavy 2: not shown
light: B1 light
notes: also called He Ab S337_18N
B10: GpH7-A5/GpH7-B3 variant S337_14T/GpL16-k0 (antibody, human IgG1, kappa)
heavy 1: not shown
heavy 2: not shown
light: B1 light
notes: also called He Ab S337_14T
B11: GpH7-A5/GpH7-B3 variant T335_19Q/GpL16-k0 (antibody, human IgG1, kappa)
heavy 1: not shown
heavy 2: not shown
light: B1 light
notes: also called He Ab T335_19Q
B12: GpH7-A5/GpH7-B3 variant T335_16H/GpL16-k0 (antibody, human IgG1, kappa)
heavy 1: not shown
heavy 2: not shown
light: B1 light
notes: also called He Ab T335_16H
B13: GpH7-A5/GpH7-B3 variant T335_07I/GpL16-k0 (antibody, human IgG1, kappa)
heavy 1: not shown
heavy 2: not shown
light: B1 light
notes: also called He Ab T335_07I
B14: GpH7-A5/GpH7-B3 variant V266_08L/GpL16-k0 (antibody, human IgG1, kappa)
heavy 1: not shown
heavy 2: not shown
light: B1 light
notes: also called He Ab V266_08L
B15: GpH7-A5/GpH7-B3 variant S337_10E/GpL16-k0 (antibody, human IgG1, kappa)
heavy 1: not shown
heavy 2: not shown
light: B1 light
notes: also called He Ab S337_10E
B16: GpH7-A5/GpH7-B3 variant K334_09D/GpL16-k0 (antibody, human IgG1, kappa)
heavy 1: not shown
heavy 2: not shown
light: B1 light
notes: also called He Ab K334_09D
B17: GpH7-A5/GpH7-B16/GpL16-k0 (antibody, human IgG1, kappa)
heavy 1: not shown
heavy 2: not shown
light: B1 light
notes: also called He Ab L234_10E; GpH7-A5/GpH7-B3 variant L234_10E/GpL16-k0
B18: GpH7-A5/GpH7-B3 variant S267_09D/GpL16-k0 (antibody, human IgG1, kappa)
heavy 1: not shown
heavy 2: not shown
light: B1 light
notes: also called He Ab S267_09D
B19: GpH7-A5/GpH7-B3 variant I336_03V/GpL16-k0 (antibody, human IgG1, kappa)
heavy 1: not shown
heavy 2: not shown
light: B1 light
notes: also called He Ab I336_03V
B20: GpH7-A5/GpH7-B3 variant T335_20W/GpL16-k0 (antibody, human IgG1, kappa)
heavy 1: not shown
heavy 2: not shown
light: B1 light
notes: also called He Ab T335_20W
B21: GpH7-A5/GpH7-B3 variant I336_06M/GpL16-k0 (antibody, human IgG1, kappa)
heavy 1: not shown
heavy 2: not shown
light: B1 light
notes: also called He Ab I336_06M
B22: GpH7-A5/GpH7-B3 variant S324_16H/GpL16-k0 (antibody, human IgG1, kappa)
heavy 1: not shown
heavy 2: not shown
light: B1 light
notes: also called He Ab S324_16H
B23: GpH7-A5/GpH7-B3 variant S337_15Y/GpL16-k0 (antibody, human IgG1, kappa)
heavy 1: not shown
heavy 2: not shown
light: B1 light
notes: also called He Ab S337_15Y
B24: GpH7-A5/GpH7-B3 variant K326_07I/GpL16-k0 (antibody, human IgG1, kappa)
heavy 1: not shown
heavy 2: not shown
light: B1 light
notes: also called He Ab K326_07I
B25: GpH7-A5/GpH7-B3 variant T335_13S/GpL16-k0 (antibody, human IgG1, kappa)
heavy 1: not shown
heavy 2: not shown
light: B1 light
notes: also called He Ab T335_13S
B26: GpH7-A5/GpH7-B3 variant P238_09D/GpL16-k0 (antibody, human IgG1, kappa)
heavy 1: not shown
heavy 2: not shown
light: B1 light
notes: also called He Ab P238_09D
B27: GpH7-A5/GpH7-B3 variant L234_04F/GpL16-k0 (antibody, human IgG1, kappa)
heavy 1: not shown
heavy 2: not shown
light: B1 light
notes: also called He Ab L234_04F
B28: GpH7-A5/GpH7-B3 variant P238_10E/GpL16-k0 (antibody, human IgG1, kappa)
heavy 1: not shown
heavy 2: not shown
light: B1 light
notes: also called He Ab P238_10E
B29: GpH7-A5/GpH7-B3-03-20W/GpL16-k0 (antibody, human IgG1, kappa)
heavy 1: not shown
heavy 2: not shown
light: B1 light
notes: also called He Ab G236_20W; GpH7-A5/GpH7-B3 variant G236_20W/GpL16-k0
B30: GpH7-A5/GpH7-B3-15-02A/GpL16-k0 (antibody, human IgG1, kappa)
heavy 1: not shown
heavy 2: not shown
light: B1 light
notes: H2 S298A
B31: GpH7-A5/GpH7-B3 variant L234_20W/GpL16-k0 (antibody, human IgG1, kappa)
heavy 1: not shown
heavy 2: not shown
light: B1 light
notes: also called He Ab L234_20W
B32: GpH7-A5/GpH7-B3 variant I336_08L/GpL16-k0 (antibody, human IgG1, kappa)
heavy 1: not shown
heavy 2: not shown
light: B1 light
notes: also called He Ab I336_08L
B33: GpH7-A5/GpH7-B3 variant S298_14T/GpL16-k0 (antibody, human IgG1, kappa)
heavy 1: not shown
heavy 2: not shown
light: B1 light
notes: also called He Ab S298_14T
B34: GpH7-A5/GpH7-B3 variant S267_02A/GpL16-k0 (antibody, human IgG1, kappa)
heavy 1: not shown
heavy 2: not shown
light: B1 light
notes: also called He Ab S267_02A
B35: GpH7-A5/GpH7-B3 variant K334_01G/GpL16-k0 (antibody, human IgG1, kappa)
heavy 1: not shown
heavy 2: not shown
light: B1 light
notes: also called He Ab K334_01G
B36: GpH7-A5/GpH7-B3-01-15Y/GpL16-k0 (antibody, human IgG1, kappa)
heavy 1: not shown
heavy 2: not shown
light: B1 light
notes: also called He Ab L234_15Y; GpH7-A5/GpH7-B3 variant L234_15Y/GpL16-k0
B37: GpH7-A5/GpH7-B3 variant I336_18N/GpL16-k0 (antibody, human IgG1, kappa)
heavy 1: not shown
heavy 2: not shown
light: B1 light
notes: also called He Ab I336_18N
B38: GpH7-A5/GpH7-B3 variant P271_01G/GpL16-k0 (antibody, human IgG1, kappa)
heavy 1: not shown
heavy 2: not shown
light: B1 light
notes: also called He Ab P271_01G
B39: GpH7-A5/GpH7-B3 variant K326_08L/GpL16-k0 (antibody, human IgG1, kappa)
heavy 1: not shown
heavy 2: not shown
light: B1 light
notes: also called He Ab K326_08L
B40: GpH7-A5/GpH7-B3 variant T335_10E/GpL16-k0 (antibody, human IgG1, kappa)
heavy 1: not shown
heavy 2: not shown
light: B1 light
notes: also called He Ab T335_10E
B41: GpH7-A5/GpH7-B3 variant T335_15Y/GpL16-k0 (antibody, human IgG1, kappa)
heavy 1: not shown
heavy 2: not shown
light: B1 light
notes: also called He Ab T335_15Y
B42: GpH7-A5/GpH7-B3 variant S337_20W/GpL16-k0 (antibody, human IgG1, kappa)
heavy 1: not shown
heavy 2: not shown
light: B1 light
notes: also called He Ab S337_20W

Molecular target: T1, FcγRIIIa extracellular domain with C-terminal His tag (human, UniProt P08637 17-208)
T1 construct: extracellular domain; also called FcgRIIIa; 3a; not shown: His tag at the C terminus
T1 sequence (P08637 17-208): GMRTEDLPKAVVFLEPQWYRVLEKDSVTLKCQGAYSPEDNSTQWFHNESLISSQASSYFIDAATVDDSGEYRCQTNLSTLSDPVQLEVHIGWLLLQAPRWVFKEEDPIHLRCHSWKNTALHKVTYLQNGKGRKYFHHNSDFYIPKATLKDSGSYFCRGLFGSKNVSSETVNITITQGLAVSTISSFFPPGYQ
Assay: SPR relative binding; GpH7-A5/GpH7-B3/GpL16-k0 = 100
Description: Analysis of interaction between objective antibody and the FcγR was carried out using Biacore T100 (GE Healthcare). HBS-EP+ (GE Healthcare) was used as the running buffer, and the measurement temperature was set to 25° C. Chips produced by immobilizing the antigen peptide by the amine coupling method to a Series S Sencor Chip CM5 (GE Healthcare), or alternatively, chips produced by allowing preliminarily biotinylated antigen peptides to interact with and immobilize onto a Series S Sensor Chip SA (certified) (GE Healthcare) were used. Antibodies of interest were captured onto an antigen peptide-immobilized chip, and allowed to interact to each FcγR diluted with running buffer. To regenerate and repeatedly use the chip, the antibodies captured on the chip were washed off by reacting 10 mM glycine-HCl, pH 1.5.
The FcγR-binding activity of each antibody was assessed primarily using as an indicator the FcγR-binding activity and dissociation constant for FcγR.

| Binder | He/Con_3a | FcγRIIIa BINDING ACTIVITY |
| --- | --- | --- |
| B1 | 111 % of control |  |
| B2 | 104 % of control |  |
| B3 | 101 % of control |  |
| B4 | 101 % of control |  |
| B5 | 103 % of control |  |
| B6 | 117 % of control |  |
| B7 | 110 % of control |  |
| B8 | 115 % of control |  |
| B9 | 104 % of control |  |
| B10 | 101 % of control |  |
| B11 | 102 % of control |  |
| B12 | 104 % of control |  |
| B13 | 107 % of control |  |
| B14 | 118 % of control |  |
| B15 | 105 % of control |  |
| B16 | 160 % of control |  |
| B17 | 114 % of control |  |
| B18 | 181 % of control |  |
| B19 | 112 % of control |  |
| B20 | 102 % of control |  |
| B21 | 109 % of control |  |

| Binder | He/Con_3a | FcγRIIIa BINDING ACTIVITY |
| --- | --- | --- |
| B22 | 104 % of control |  |
| B23 | 102 % of control |  |
| B24 | 139 % of control |  |
| B25 | 105 % of control |  |
| B26 | 106 % of control |  |
| B27 | 118 % of control |  |
| B28 | 105 % of control |  |
| B29 | 135 % of control | 140 % of control |
| B30 |  | 163 % of control |
| B31 | 107 % of control |  |
| B32 | 106 % of control |  |
| B33 | 113 % of control |  |
| B34 | 150 % of control |  |
| B35 | 121 % of control |  |
| B36 | 130 % of control | 131 % of control |
| B37 | 104 % of control |  |
| B38 | 113 % of control |  |
| B39 | 114 % of control |  |
| B40 | 107 % of control |  |
| B41 | 104 % of control |  |
| B42 | 101 % of control |  |
